Assay results as given in patent US20230272109A1.

Target: Claudin 18.2 (UniProt P56856)
Assay: flow cytometry (FACS), cells not given

EC50: 0.166 µg/mL
B1: RGCLN18.2 antibody (antibody, human IgG1, kappa, V domains shown)
VH: QVQLVQSGAEVKKPGASVKVSCKASGYAFTNYLIEWVRQAPGQGLEWMGLINPGSGGTNYNEKFKGRVTMTRDTSTSTVYMELSSLRSEDTAVYYCARGGYYGNSFAYWGQGTLVTVSS
VL: DIVMTQSPLSLPVTPGEPASISCKSSQSLLNSGNQKNYLTWYLQKPGQSPQLLIYWASTRESGVPDRFSGSGSGTDFTLKISRVEAEDVGVYYCQNAYYYPYTFGGGTKVEIKR
